Measured values reported in the supplement of paper PMC12764529.
± gives the half width of the 95% confidence interval.

Legend:
[1] = folding stability dG unfold from chymotrypsin proteolysis; higher = more stable
Procedure, shortened: (§1)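 How resistant each design was to proteolysis was captured as K50, inferred by Bayesian fitting of sequencing counts. Unfolding free energy was then derived relative to a sequence-predicted unfolded-state K50 and a shared folded-state K50, per protease or combined. Digestion used trypsin and chymotrypsin at 11 threefold-diluted concentrations plus a no-protease condition, on mini-proteins under 80 residues without cysteine in a PA-tagged cDNA display construct. Designs were kept only when AlphaFold2 dimer inter-PAE was above 15.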

[2] = folding stability dG unfold (combined trypsin and chymotrypsin); higher = more stable
Procedure, shortened: as §1

Row | Sequence | folding stability dG unfold [1] [kcal/mol] | folding stability dG unfold [2] [kcal/mol]
1 | SAGGSAGGSGGTIKLPLYPPEGKEYKGTIPKEKLEAAIAKGEPIKVTLKTKGKEVKEYTIPIKSAGGSAGGS [r12_991_JUSTAS] | -0.582 ± 0.44 | -0.983 ± 0.48
2 | SAGGSAGGSGHHHMTTRTSTSTDPATGSTTVTTTRTTTDGGTVTTTTTLPPPAATTTTSTTTSSAGGSAGGS [r12_1029_JUSTAS] | 0.349 ± 0.044 | -0.165 ± 0.11
3 | SAGGSAGGSGMPRKIASYEEKEEEDGKKTVKVRFPDDGKEITLSPEKAGKITPDSTVPLEELLSAGGSAGGS [r20_3_JUSTAS] | 0.404 ± 0.049 | -0.168 ± 0.43
4 | SAGGSAGGSGMPTRNVPITTPDGKVVTVVERPPERAEIIFPDGSRATIVDPARGYEEITITPESAGGSAGGS [r12_491_JUSTAS] | 0.945 ± 0.027 | 0.542 ± 0.059
5 | SAGGSAGGSGMSSTSTTTVEIEKDPSTGKVLKKTVTSPTTTLAPGGEWTTTVSTSTEEISPDLSAGGSAGGS [r12_629_JUSTAS] | -0.101 ± 0.24 | -0.237 ± 0.4
6 | SAGGSAGGSIEINPNGNFKIRFRGGNRPQTHTIPIKPGETLDTIKDTIRKHMGPNFPEVEIERSAGGSAGGS [r12_300_TrROS] | 0.0855 ± 0.11 | -0.152 ± 0.13
7 | SAGGSAGGSKPIPIKIKARNKDDGKKREEDIQIPPEALKNGKFDKEQIKKELRKLGPRVEIEISAGGSAGGS [r20_221_TrROS] | -0.216 ± 0.18 | < -1
8 | SAGGSAGGSMEKRKLEIEIHLPASEATEEEMEELAEEYAKKNPEADEVTFKFTVEESDKESLESAGGSAGGS [r20_86_JUSTAS] | -0.141 ± 0.25 | -0.605 ± 0.33
9 | SAGGSAGGSMKTVKPTELLASLSPEEEVILTTPTSATRLTVEEVKNVPEDTPVDVEVVPRNAASAGGSAGGS [r12_501_JUSTAS] | 0.685 ± 0.015 | 0.244 ± 0.051
10 | SAGGSAGGSMNVKKVESEKDTGDGSTLTTNTVELPSNIIIVEPVLTPPSGNPQTTTKILPKGLSAGGSAGGS [r12_407_JUSTAS] | -0.157 ± 0.12 | -0.5 ± 0.18
11 | SAGGSAGGSMSTVSTSTTYFPDKKVTTTTTVTPTPDGTTATTPSVTVTPLPPPNPPPAPFNRLSAGGSAGGS [r20_30_JUSTAS] | -0.125 ± 0.28 | -0.351 ± 0.36
12 | SAGGSAGGSNWIEKAINEAMKQHPPGQERKVPIEIYNPNNNKPIGKIPIRIRMDKDGPMEIEISAGGSAGGS [r20_151_TrROS] | 0.864 ± 0.049 | 0.529 ± 0.074
13 | SAGGSAGGSPKKRTVEIDEWDPEEGNVRARIRDDDEEREFPFRTPEDLEDLANEGGIDKITPHSAGGSAGGS [r12_421_TrROS] | 0.518 ± 0.027 | 0.0607 ± 0.095
14 | SAGGSAGGSPNQDFKVKVKIKEFNPGNGHIRIDVEVEGDNPQVQDFAKGIAEGFGFPVEVEPISAGGSAGGS [r20_157_TrROS] | 0.34 ± 0.038 | -0.0925 ± 0.14
15 | SAGGSAGGSQWIEIELPLPNGRNIQIEMWPNNGMVDVEWPDGKEVEFPVETADDALDRVLDALSAGGSAGGS [r12_866_TrROS] | 0.552 ± 0.12 | 0.0352 ± 0.21
16 | SAGGSAGGSSMEVVTPIERPVDVTSPENGEVVKVRVKTLVGKDPNAWTTETTLTLPDGTPVALSAGGSAGGS [r12_283_JUSTAS] | 0.988 ± 0.11 | 0.337 ± 0.2
17 | SAGGSAGGSVEELLAAATSEDPAKGLARAELPSGATATVDPAAGTVTITFTSPGTPSTTTVPAPSAGGSAGG [r6_793_JUSTAS] | 0.33 ± 0.13 | < -1
18 | SAGGSAGGSVYLDPAVLAELEALRQAGLRVAEVREERVEVEGGPPRRVDVRAVVVDLPPEALAASAGGSAGG [r6_771_JUSTAS] | 0.621 ± 0.056 | -0.11 ± 0.18
19 | SAGGSAGGTIRIPPAARNMMKELQKQGFVIEEIKIDEIERTENGPPWIEIDFEIKKLPPEALKDSAGGSAGG [r6_771_TrROS] | -0.317 ± 0.33 | -0.939 ± 0.89
20 | SAGGSAGGVEELAKKLNIEVTGNEVTITLKKKKVTVKKLKAPPLKVKKYVDKKTKKIVKTEVELSAGGSAGG [r6_981_TrROS_Hall] | 0.9 ± 0.28 | 0.431 ± 0.29
21 | SAGGSAIKIDPDYGTIEIYNPDNGKEIEIPIDGLPPGRKMDIEINNDKIEIKMPGGTRELPIDDIKSAGGSA [r15_864_TrROS] | 0.655 ± 0.068 | 0.194 ± 0.26
22 | SAGGSAKTIVIPAEDLTPEEIKALAEENKDKIVIYNKKTKKVVTIEVKDGKITKVEEFPVSEEELKSAGGSA [r15_751_TrROS_Hall] | 0.173 ± 0.3 | -0.256 ± 0.67

Row | Sequence | folding stability dG unfold [1] [kcal/mol] | folding stability dG unfold [2] [kcal/mol]
23 | SAGGSALKVKSVHQNPDDNYYMITVTIPGPDKAPREIMFPSPEDLEDKLDNLPPGIESVEIHPMKPSAGGSA [r15_589_TrROS] | -0.203 ± 0.19 | < -1
24 | SAGGSAMKIEEEEVEVPLSDEELEALKKNPGKTVKVKVIKIEIEMPEEEKKRLAKELEEKFNIKIESAGGSA [r15_347_TrROS_Hall] | 0.0343 ± 0.2 | -0.146 ± 0.27
25 | SAGGSAMSLEELKKKKVKVKVKEIEVPKGAKIPDGKTVKEGEKILVVDGKVYLPNGKLIAEVEVEESAGGSA [r15_12_TrROS_Hall] | -0.621 ± 0.22 | -0.629 ± 0.47
26 | SAGGSAMSQEEIENKPIEEIAKAILENFPGNTKVEHEFTFKDGSKLRIVVELPEDGEPKIEAEPIGSAGGSA [r15_857_TrMRF] | -0.0162 ± 0.39 | -0.452 ± 0.56
27 | SAGGSASMRTVTLTSTETLELKDPSGNLRVETTPVVVTVPVEVPDPNLPPPAVNSPVLTELLLRLLSAGGSA [r15_728_JUSTAS] | 0.413 ± 0.064 | 0.0436 ± 0.084
28 | SAGGSASTTPIKFPNGFEVTKIEEGKGLVYIKYSPENPEILEKLGVEALETNENEVIVPREAIEKKSAGGSA [r15_984_JUSTAS] | -0.634 ± 0.28 | -0.993 ± 0.36
29 | SAGGSATFEEALREVAEPTGAVPYVDPETGVAYVDFPDGKELEIEVPDGDRIEVRVLPDGRAVARGSAGGSA [r15_256_TrMRF] | -0.494 ± 0.19 | < -1
30 | SAGGSEAAPGEKVTITTVTSSVLKTYETPTGTLETESSTSVTTTTVTVPAAAAAAAGVRYSPDPLLSAGGSA [r2_495_JUSTAS] | -0.348 ± 0.14 | < -1
31 | SAGGSGSIVIKSIEPRLRLERLPNGELREVKEVEVDIEVEVDPETAPEEEIEAVREEAEKLAEELSSAGGSA [r2_40_JUSTAS] | 0.713 ± 0.082 | 0.144 ± 0.21
32 | SAGGSMKLKPGDEIWVPENMPEDAIKDEIKEWADNFNIKGIDDIEPPKPGWHRIKVEWPNGRKLTISAGGSA [r2_168_TrROS] | -0.147 ± 0.17 | -0.748 ± 0.3
33 | SAGGSSAEELAEALKKKLEELGLEIKELELKVKKVKVEEKPKPKVELKEEKVEVKEKKFYSEEEKKSAGGSA [r2_384_TrROS_Hall] | -0.485 ± 0.69 | < -1
34 | SAGGSSLPPEYTVTEVEREFTTPEDVAEARAAAEAAAAAGAEVLEVTVERPEDGSYRVRFTLATPRSAGGSA [r2_350_JUSTAS] | 0.611 ± 0.22 | 0.0151 ± 0.24
35 | SAGGSSRTISIPVSPSLSPEEVAELIKKEVKKMGEDKEVKVLSVDPSGRIDVLVGDEPITVDASLPSAGGSA [r2_102_JUSTAS] | 0.623 ± 0.1 | 0.235 ± 0.2
36 | SAGGSSYIVKATPAGGPSFEAEATLTSVSSEGDNFTANVEVTFDGKPVTLTFDGDKVGPVVIEPPESAGGSA [r2_319_TrMRF] | 0.558 ± 0.15 | -0.0521 ± 0.17
37 | SAGGSTAEELADQIHKKFMEQGYKITDVDITYNPNNWVMVKATIRNPDDPNQRMKMNIMIPKDEIKSAGGSA [r2_384_TrROS] | 0.649 ± 0.32 | 0.239 ± 0.29
38 | SAGGSYMVKVEWRNNNKEMEMTHPFDDPEDALNFAHDLLPNGMELDIEVFDPKEGEPIGTVPFRVDSAGGSA [r2_390_TrROS] | -0.536 ± 0.26 | < -1
39 | SAGGTIKPGQPVRIRAEWYNGNKEWTHTHEFPLPENQTLDDVADEILEHLPPEHNKNFKVRIEIEPVSAGGS [r16_321_TrROS] | 0.904 ± 0.1 | 0.373 ± 0.11
40 | SAGGWVKDPDGQTVEMKVLDPGMNKDNAKPFADNIAEQLHRQHGMNPNNVKVKVETDPENGTVRVKVKSAGG [r13_913_TrROS] | -0.385 ± 0.39 | < -1
41 | SAGKMTIEIVVEVKPGMTEEELKEKLEELVKKLKEEFPELKNLEIKIVEVKVERLEDGTLRVTVKIEVKSAG [r5_985_TrROS_Hall] | 3.08 ± 0.24 | > 6
42 | SAGKVLEELGYELVEEKEEEIGDVKIITATFPVGESPVVVTAEVTEKKEDDKPIVKVKVTVTPLPPEAPSAG [r5_516_JUSTAS] | 0.977 ± 0.17 | 0.58 ± 0.51
43 | SAGMKIKVTIERGGDRAERILPPEEAKALLDKYPEDGEIPLDLEGEEVTVKIEKTPPALPTEEAIKELKSAG [r5_669_JUSTAS] | 0.11 ± 0.4 | < -1
